Measurements: article PMC7784082 (Cell metabolism, 2019)

Target: TAZ, mouse, expressed from plasmid (HA-TAZ WT) (mouse, UniProt Q9EPK5 1-395)
Assay: co-IP

TAZ, mouse, expressed from plasmid (HA-TAZ WT), sequence (Q9EPK5 whole entry): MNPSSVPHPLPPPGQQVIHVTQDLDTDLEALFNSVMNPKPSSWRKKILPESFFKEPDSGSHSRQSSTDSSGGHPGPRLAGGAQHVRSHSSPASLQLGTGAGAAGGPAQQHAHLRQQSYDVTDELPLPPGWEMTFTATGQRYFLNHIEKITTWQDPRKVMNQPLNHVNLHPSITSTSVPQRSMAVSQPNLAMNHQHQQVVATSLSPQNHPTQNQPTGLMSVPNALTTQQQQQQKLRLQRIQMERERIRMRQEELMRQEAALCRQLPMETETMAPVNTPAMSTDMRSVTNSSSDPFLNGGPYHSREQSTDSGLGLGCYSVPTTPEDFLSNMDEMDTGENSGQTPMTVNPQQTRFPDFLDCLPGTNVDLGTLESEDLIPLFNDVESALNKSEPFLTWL

fold change of association against WT PPARγ: ~2 fold
B1: PPARγ S112D (phospho-mimic mutant of mouse PPARgamma 2) (natural protein, UniProt P37238-1 1-505, looked up)
chain: MGETLGDSPVDPEHGAFADALPMSTSQEITMVDTEMPFWPTNFGISSVDLSVMEDHSHSFDIKPFTTVDFSSISAPHYEDIPFTRADPMVADYKYDLKLQEYQSAIKVEPADPPYYSEKTQLYNRPHEEPSNSLMAIECRVCGDKASGFHYGVHACEGCKGFFRRTIRLKLIYDRCDLNCRIHKKSRNKCQYCRFQKCLAVGMSHNAIRFGRMPQAEKEKLLAEISSDIDQLNPESADLRALAKHLYDSYIKSFPLTKAKARAILTGKTTDKSPFVIYDMNSLMMGEDKIKFKHITPLQEQSKEVAIRIFQGCQFRSVEAVQEITEYAKNIPGFINLDLNDQVTLLKYGVHEIIYTMLASLMNKDGVLISEGQGFMTREFLKNLRKPFGDFMEPKFEFAVKFNALELDDSDLAIFIAVIILSGDRPGLLNVKPIEDIQDNLLQALELQLKLNHPESSQLFAKVLQKMTDLRQIVTEHVQLLHVIKKTETDMSLHPLLQEIYKDLY
